Experiments:
[1] = target: T1, MsDyP (unencapsulated DyP) (Mycolicibacterium smegmatis, UniProt A0R4G9); type: biochemical
T1 sequence (A0R4G9 1-343): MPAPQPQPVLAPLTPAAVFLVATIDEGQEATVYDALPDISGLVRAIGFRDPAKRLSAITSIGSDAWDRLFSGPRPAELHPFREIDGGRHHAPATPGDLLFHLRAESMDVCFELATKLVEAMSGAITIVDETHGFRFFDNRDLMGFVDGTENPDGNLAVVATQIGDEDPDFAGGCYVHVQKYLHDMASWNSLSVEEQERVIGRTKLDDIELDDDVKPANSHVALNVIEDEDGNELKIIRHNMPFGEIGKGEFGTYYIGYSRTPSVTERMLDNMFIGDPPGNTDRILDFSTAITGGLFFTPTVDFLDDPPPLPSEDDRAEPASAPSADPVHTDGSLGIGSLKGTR

cryo-EM structure = target: the molecule itself; assay: cryo-EM structure

Row | Molecule | peroxidase assay, oxidation monitored at 430 nm [1] | stoichiometry N (cryo-EM structure)
1 | Oc1cccc(O)c1O [pyrogallol] | utilizing H2O2 as the electron acceptor and pyrogallol (Sigma P0381-25g) as an electron donor | –
2 | DyP (dye-decolorizing peroxidase), native cargo of the Mycobacterium smegmatis encapsulin (enzyme) MPAPQPQPVLAPLTPAAVFLVATIDEGQEATVYDALPDISGLVRAIGFRDPAKRLSAITSIGSDAWDRLFSGPRPAELHPFREIDGGRHHAPATPGDLLFHLRAESMDVCFELATKLVEAMSGAITIVDETHGFRFFDNRDLMGFVDGTENPDGNLAVVATQIGDEDPDFAGGCYVHVQKYLHDMASWNSLSVEEQERVIGRTKLDDIELDDDVKPANSHVALNVIEDEDGNELKIIRHNMPFGEIGKGEFGTYYIGYSRTPSVTERMLDNMFIGDPPGNTDRILDFSTAITGGLFFTPTVDFLDDPPPLPSEDDRAEPASAPSADPVHTDGSLGIGSLKGTR | – | 12
3 | CFP-29 (29 kDa culture filtrate protein), encapsulin shell protein of Mycobacterium smegmatis (natural protein) MNNLYRDLAPITESAWAEIELEATRTFKRHIAGRRVVDVSGPNGPTTASVSTGHLLDVSPPGDGVIAHLRDAKPLVRLRVPFTVARRDIDDVERGSQDSDWDPVKDAAKKLAFVEDRAIFEGYAAASIEGIRSSSSNPALALPDDAREIPDVIAQALSELRLAGVDGPYSVLLSAETYTKVSETTAHGYPIREHINRLVDGEIIWAPAIDGAFVLSTRGGDFDLQLGTDVSIGYLSHDAEVVHLYMEETMTFLCYTAEASVALTP | – | 60
